Assays:
Assay in all cases: Biacore (SPR), tau peptide
[1] = molecular target: T1, Tau379-408 [P-Ser396/404] (phosphoserine at Ser396 and Ser404 (Tau numbering, SEQ ID NO:1))
T1 construct: 30 amino acid synthetic peptide; also called Tau 379-408 (PSer396/PSer404)

[2] = molecular target: T2, Tau386-408 [P-Ser396/404] (phosphoserine at positions 11 and 19 (Ser396 and Ser404 of Tau))
T2 construct: 23 amino acid peptide; also called Tau 386-408 (PSer396/PSer404)

[3] = molecular target: Tau386-408 [P-Ser404] (phosphoserine at Ser404 of Tau (position 19 of SEQ ID NO:7))
Sequence of Tau386-408 [P-Ser404] (phosphoserine at Ser404 of Tau (position 19 of SEQ ID NO:7)) (peptide, as listed by the source): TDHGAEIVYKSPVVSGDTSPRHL

[4] = molecular target: T3, Tau379-408
T3 construct: 30 amino acid synthetic peptide, not phosphorylated; also called Tau 379-408 (Ser396/Ser404)
T3 sequence (peptide, as listed by the source): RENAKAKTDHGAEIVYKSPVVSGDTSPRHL

Kd [1]: 271 nM | Kd [2]: 469 nM | Kd [3]: 278 nM | Kd [4]: 212 nM
B1: Antibody 4E6G7 (antibody, V domains shown)
VH: VQLQQSGAELVQPGASVKLSCTASGFNIKDTSMHWVRQRPEQGLEWIGRIAPANGNTKYDPKFQGKATITTDTSSNTAYLQLSSLTSEDTAVYYCSGSGNYDWGQGTTLTVS
VL: DIQMNQSPSSLSASLGDTITISCHASQNINVWLSWYQQKPGNIPKLLIFEASTLYTGVPSRFSGSGSGTGFTLTISSLQPEDIATYYCQQGQSYPWTFGGGTKLEIKR
notes: constant regions are not

From patent US20180312608A1 (NEW YORK UNIVERSITY, published 2018)
